Columns and labels:
Test in all cases: covalent complex formation, SDS-PAGE and Western blot with HK1G586.1
[1] = biological target: T1, α1-antitrypsin (alpha 1-protease inhibitor) (human, UniProt P01009 25-418)
T1 construct: Serpin, used at 20 µM
Procedure: (§1) FIG. 18 depicts Western blot analysis of hK2 incubated with protease inhibitors. Each sample was separated on a 8-25% gradient SDS-PAGE, blotted and probed with HK1G586.1. hK2 was incubated for 4 hours at 37° C. with the following inhibitors: Lane 1, antichymotrypsin (ACT); lane 2, alpha 2-antiplasmin; lane 3, anti-thrombin III; lane 4, alpha 1-protease inhibitor (anti-trypsin); lane 5, alpha 2-macroglobulin; lanes 1 and 2 show a covalent complex of the predicted Mr of 90-100 kD. Serpin inhibitors were employed at 20 μM, macroglobulin at 2.8 μM, and hK2 at 0.175 μM.
(§2) To test for covalent complex formation, 0.175 μM hK2 was incubated with 20 μM of inhibitor at pH 8 in 100 mM borate buffer. Inhibitors tested were 1-antichymotrypsin, 1-antitrypsin, 1-antiplasmin, antithrombin and 2-macroglobulin. To 5 μl of hK2 (10 μg/ml) was added the calculated μg of inhibitor prepared in 100 mM borate buffer and, if needed, each sample brought up to a total volume of 10 μl. Samples were incubated for 3 hours at 37° C. whereupon 1.5 μl of 7 X PhastSystem SDS sample buffer containing 35% 2-mercaptoethanol was added and the sample boiled for 3 minutes in a water bath. Samples were diluted 1/4 in SDS sample buffer prior to application to SDS/PAGE and Western analyses.

[2] = biological target: T2, antithrombin III (human, UniProt P01008 33-464)
T2 construct: Serpin, used at 20 µM
T2 sequence (P01008 33-464 limits assumed): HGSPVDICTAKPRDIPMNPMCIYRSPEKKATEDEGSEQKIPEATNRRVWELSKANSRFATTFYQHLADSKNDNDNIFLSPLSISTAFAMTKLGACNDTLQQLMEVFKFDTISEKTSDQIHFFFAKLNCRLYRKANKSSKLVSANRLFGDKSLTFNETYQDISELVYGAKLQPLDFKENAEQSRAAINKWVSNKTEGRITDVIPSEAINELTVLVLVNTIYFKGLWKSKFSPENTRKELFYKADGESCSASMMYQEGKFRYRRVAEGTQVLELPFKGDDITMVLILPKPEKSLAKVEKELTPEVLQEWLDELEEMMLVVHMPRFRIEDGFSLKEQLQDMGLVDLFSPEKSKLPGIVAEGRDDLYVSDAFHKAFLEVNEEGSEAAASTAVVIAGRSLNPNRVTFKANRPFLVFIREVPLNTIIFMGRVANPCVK
Procedure: as §1, §2

[3] = biological target: T3, antichymotrypsin (ACT) (human, UniProt P01011 24-423)
T3 construct: Serpin, used at 20 µM; also called 1-antichymotrypsin
T3 sequence (looked up): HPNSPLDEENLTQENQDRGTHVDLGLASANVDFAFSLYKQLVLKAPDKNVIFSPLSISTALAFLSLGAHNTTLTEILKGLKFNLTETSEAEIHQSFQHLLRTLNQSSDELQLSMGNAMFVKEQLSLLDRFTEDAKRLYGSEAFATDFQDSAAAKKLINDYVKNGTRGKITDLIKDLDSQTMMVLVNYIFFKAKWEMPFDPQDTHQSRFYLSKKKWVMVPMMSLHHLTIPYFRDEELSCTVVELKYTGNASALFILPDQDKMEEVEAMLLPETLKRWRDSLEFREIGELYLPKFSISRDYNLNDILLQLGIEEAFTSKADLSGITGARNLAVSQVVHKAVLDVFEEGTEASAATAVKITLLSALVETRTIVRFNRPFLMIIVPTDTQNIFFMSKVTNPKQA
Procedure: as §1, §2

[4] = biological target: T4, alpha 2-antiplasmin (human, UniProt P08697 40-491, limits assumed)
T4 construct: Serpin, used at 20 µM; also called α2-antiplasmin; 1-antiplasmin
T4 sequence (looked up): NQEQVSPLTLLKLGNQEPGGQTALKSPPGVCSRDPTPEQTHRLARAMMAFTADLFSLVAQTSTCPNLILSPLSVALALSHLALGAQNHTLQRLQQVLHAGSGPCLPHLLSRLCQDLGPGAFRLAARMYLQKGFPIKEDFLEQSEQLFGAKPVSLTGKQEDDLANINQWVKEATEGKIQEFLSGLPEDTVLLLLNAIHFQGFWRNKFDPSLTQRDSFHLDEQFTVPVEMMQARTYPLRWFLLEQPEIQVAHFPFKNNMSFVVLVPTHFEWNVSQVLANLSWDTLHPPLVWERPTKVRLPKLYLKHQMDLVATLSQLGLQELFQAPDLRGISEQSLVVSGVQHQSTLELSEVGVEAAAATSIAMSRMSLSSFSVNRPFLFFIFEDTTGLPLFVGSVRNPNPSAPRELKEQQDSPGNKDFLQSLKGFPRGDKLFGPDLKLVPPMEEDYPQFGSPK
Procedure: as §1, §2

T1 sequence (P01009 25-418 limits assumed): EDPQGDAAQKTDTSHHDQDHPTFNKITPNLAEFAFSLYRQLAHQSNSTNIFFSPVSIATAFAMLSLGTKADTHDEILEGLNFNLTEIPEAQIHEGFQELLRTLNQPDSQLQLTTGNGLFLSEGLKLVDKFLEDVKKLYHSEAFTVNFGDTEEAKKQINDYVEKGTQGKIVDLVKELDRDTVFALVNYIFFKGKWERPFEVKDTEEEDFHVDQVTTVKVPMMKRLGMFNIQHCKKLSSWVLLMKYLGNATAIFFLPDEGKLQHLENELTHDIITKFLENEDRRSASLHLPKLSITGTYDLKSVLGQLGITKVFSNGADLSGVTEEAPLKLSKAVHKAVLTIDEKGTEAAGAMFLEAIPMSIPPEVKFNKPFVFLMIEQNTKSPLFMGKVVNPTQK

binding result [3]: binds
binding result [4]: binds
B1: wild type mature hK2 (prostate-specific glandular kallikrein protein) (enzyme)
chain: not shown
notes: From spent medium of AV12-hK2, PC3-hK2 and DU145-hK2 cells, LNCaP medium, seminal fluid or prostate tissue, depending on the experiment; also called native hK2
binding result [1]: no binding (tested: 20 µM inhibitor, 0.175 µM hK2)
binding result [2]: no binding (tested: 20 µM inhibitor, 0.175 µM hK2)

Reference: patent US20030113743A1 (BAYLOR COLLEGE OF MEDICINE HYBRITECH, published 2003)
